In doi:10.1101/2020.05.24.113621 (bioRxiv, 2020):

Target: the molecule itself
Assay: crystal structure

GNYNVF [hnRNPA2 mutant core segment GNYNVF (residues 286-291 with D290V)]
binding result: binds
